Measured values published in publication PMC11607802.

Target: Butelase AY (Butelase 1 V237A/T238Y), zymogenic form before activation (Clitoria ternatea)
Assay: SEC

## Butelase AY (Butelase 1 V237A/T238Y), zymogenic form before activation (enzyme)
  stoichiometry N: 2
